In patent US20030059461A1:

Experiments:
[1] = biological target: S-peptide fragment of bovine pancreatic ribonuclease A (bovine); assay: cell-based or functional assay
[2] = biological target: KDR/flk-1 receptor on 293/KDR or PAE/KDR cells (UniProt P35968); assay: cell-based or functional assay
KDR/flk-1 receptor on 293/KDR or PAE/KDR cells, sequence (P35968 20-1356 limits assumed): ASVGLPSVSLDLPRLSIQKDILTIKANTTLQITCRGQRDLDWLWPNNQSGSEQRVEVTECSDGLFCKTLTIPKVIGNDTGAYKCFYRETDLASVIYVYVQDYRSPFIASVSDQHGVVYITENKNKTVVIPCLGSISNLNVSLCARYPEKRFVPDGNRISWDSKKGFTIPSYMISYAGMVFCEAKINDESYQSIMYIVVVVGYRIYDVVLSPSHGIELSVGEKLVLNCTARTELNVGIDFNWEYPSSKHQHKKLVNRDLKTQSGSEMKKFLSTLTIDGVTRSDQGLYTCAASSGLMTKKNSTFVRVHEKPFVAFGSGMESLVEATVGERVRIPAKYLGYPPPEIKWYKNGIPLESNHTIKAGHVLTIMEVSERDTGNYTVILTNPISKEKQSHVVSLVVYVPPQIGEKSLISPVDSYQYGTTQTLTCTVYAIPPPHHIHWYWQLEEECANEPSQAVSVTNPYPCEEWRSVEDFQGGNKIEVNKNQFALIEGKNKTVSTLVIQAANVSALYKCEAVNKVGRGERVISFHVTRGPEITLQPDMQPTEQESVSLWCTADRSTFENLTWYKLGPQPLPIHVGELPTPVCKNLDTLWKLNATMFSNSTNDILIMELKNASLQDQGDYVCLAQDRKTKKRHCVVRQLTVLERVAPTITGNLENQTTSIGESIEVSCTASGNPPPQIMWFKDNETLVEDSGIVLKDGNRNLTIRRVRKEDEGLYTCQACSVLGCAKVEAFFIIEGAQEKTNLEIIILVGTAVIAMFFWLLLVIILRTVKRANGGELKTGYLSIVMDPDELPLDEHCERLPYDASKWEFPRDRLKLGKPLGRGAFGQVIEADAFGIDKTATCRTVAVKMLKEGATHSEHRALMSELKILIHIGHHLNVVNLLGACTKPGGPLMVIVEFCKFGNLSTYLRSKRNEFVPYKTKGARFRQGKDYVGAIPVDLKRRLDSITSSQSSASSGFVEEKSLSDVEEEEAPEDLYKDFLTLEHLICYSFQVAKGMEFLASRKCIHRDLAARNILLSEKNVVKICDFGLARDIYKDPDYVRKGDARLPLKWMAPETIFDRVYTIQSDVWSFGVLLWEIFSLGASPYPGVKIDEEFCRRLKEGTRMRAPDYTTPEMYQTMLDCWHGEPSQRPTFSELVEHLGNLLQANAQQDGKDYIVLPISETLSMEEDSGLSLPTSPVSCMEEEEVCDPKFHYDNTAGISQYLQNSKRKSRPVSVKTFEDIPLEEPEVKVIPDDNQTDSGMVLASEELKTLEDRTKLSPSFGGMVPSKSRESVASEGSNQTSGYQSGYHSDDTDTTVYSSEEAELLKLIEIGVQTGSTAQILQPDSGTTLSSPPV

Lip(Dox)-SP-FVEGF121 complex, sequence (P15692 other isoform, or with tags, fused parts or gaps): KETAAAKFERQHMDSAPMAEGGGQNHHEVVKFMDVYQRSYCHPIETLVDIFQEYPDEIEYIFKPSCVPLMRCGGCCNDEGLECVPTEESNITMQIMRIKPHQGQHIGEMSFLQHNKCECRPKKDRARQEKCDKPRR
Lip(Dox)-SP-FVEGF121 complex, sequence (P61823 47-150): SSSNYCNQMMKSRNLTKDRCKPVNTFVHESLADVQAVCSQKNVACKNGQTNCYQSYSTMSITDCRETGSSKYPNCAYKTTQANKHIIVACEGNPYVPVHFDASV
MBS-modified S-protein, 10-fold molar excess of sulfo-MBS, sequence (P61823 47-150): as above
S-protein fragment of bovine ribonuclease (Sigma), sequence (P61823 47-150): as above
MBS-modified S-protein, 2-fold molar excess of sulfo-MBS, sequence (P61823 47-150): as above
MBS-modified S-protein, 40-fold molar excess of sulfo-MBS, sequence (P61823 47-150): as above
MBS-modified S-protein, 20-fold molar excess of sulfo-MBS, sequence (P61823 47-150): as above

Work on “S-protein fragment of bovine ribonuclease (Sigma) (from UniProt P61823 47-150)” yielded a Ribonuclease Activity (%), S-tag Rapid Assay Kit; SulphoMBS molar excess: none [1] of 100%.
Substance “MBS-modified S-protein, 10-fold molar excess of sulfo-MBS (from UniProt P61823 47-150)” has a Ribonuclease Activity (%), S-tag Rapid Assay Kit; SulphoMBS molar excess: 10 [1] of 38%.
“MBS-modified S-protein, 40-fold molar excess of sulfo-MBS (from UniProt P61823 47-150)” gave a Ribonuclease Activity (%), S-tag Rapid Assay Kit; SulphoMBS molar excess: 40 [1] of 25%.
Work on “MBS-modified S-protein, 20-fold molar excess of sulfo-MBS (from UniProt P61823 47-150)” yielded a Ribonuclease Activity (%), S-tag Rapid Assay Kit; SulphoMBS molar excess: 20 [1] of 36%.
Substance “Lip(Dox)-SP-FVEGF121 complex (from UniProt P15692 27-147; P61823 47-150)” has an IC50 of growth inhibition of 293/KDR cells [2] of 5 nM.
In the case of “MBS-modified S-protein, 2-fold molar excess of sulfo-MBS (from UniProt P61823 47-150)”, the Ribonuclease Activity (%), S-tag Rapid Assay Kit; SulphoMBS molar excess: 2 [1] is reported as 57%.
